Experimental data reported in patent US20240301385, “DNA MODIFYING ENZYMES AND ACTIVE FRAGMENTS AND VARIANTS THEREOF AND METHODS OF USE” (LIFEEDIT THERAPEUTICS, INC., published 2024).

Experiments:
[1] = target: nAPG07433.1-APG05840 (synthetic); test: cell_activity; HEK293FT; C>G predominant; PAM SEQ 152; settings: tags: SV40 NLS, 3xFLAG N-term; nucleoplasmin NLS C-term
[2] = target: T1, nAPG07433.1-APG09980 (synthetic); test: as above; settings: tags: SV40 NLS, 3xFLAG N-term; nucleoplasmin NLS C-term
T1 chain: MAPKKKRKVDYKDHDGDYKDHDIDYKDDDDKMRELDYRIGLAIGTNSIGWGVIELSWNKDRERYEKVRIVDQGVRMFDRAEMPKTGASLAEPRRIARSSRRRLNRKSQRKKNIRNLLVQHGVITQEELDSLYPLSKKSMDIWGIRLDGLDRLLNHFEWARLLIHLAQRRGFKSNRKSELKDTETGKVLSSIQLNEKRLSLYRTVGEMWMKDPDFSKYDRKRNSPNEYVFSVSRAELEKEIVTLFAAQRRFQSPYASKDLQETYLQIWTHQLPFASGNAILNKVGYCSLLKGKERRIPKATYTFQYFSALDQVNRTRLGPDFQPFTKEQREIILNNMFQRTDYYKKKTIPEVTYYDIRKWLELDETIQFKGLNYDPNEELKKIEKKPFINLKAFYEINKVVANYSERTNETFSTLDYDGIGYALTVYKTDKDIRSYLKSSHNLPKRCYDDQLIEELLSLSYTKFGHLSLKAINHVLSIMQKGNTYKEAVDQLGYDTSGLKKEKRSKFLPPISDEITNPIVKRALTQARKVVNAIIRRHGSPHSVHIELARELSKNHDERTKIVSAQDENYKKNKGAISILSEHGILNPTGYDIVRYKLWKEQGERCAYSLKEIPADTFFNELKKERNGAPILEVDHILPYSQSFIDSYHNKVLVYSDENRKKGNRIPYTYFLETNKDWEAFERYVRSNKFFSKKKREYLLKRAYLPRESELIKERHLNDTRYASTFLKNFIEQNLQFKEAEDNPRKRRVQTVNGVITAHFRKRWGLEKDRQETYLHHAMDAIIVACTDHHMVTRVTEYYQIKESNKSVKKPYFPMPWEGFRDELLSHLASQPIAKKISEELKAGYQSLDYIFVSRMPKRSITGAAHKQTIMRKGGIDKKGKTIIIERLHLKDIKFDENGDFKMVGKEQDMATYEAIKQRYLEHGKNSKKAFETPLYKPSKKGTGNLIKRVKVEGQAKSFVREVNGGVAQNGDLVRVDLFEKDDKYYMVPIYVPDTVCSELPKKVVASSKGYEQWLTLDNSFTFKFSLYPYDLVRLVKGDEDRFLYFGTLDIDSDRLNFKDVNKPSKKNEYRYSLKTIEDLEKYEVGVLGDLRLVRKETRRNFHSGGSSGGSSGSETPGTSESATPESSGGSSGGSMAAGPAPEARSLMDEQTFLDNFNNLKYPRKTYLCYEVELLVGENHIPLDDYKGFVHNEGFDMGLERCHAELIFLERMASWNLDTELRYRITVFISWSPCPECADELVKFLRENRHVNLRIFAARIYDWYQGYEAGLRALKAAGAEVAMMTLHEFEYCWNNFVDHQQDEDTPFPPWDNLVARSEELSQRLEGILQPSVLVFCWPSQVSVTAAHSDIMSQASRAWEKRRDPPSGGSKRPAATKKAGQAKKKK

B1: SGN000930 sgRNA ; SGN000930 target (ssRNA ; dsDNA)
RNA: GAACAACUCAAAUGGAAAUGAAUAUGUCAUAGUUCCAUGAAAGCCAAAAGUGGCUUUGAUGUUUCUAUGAUAAGGGUUUCGGCCCGUGGCGUCGGGGAUCGCCUGCCCAUUCCGAUGGGCUUCUCCCCAUUUAUU
DNA 1: GAACAACTCAAATGGAAATGAATAT
DNA 2: ATATTCATTTCCATTTGAGTTGTTC
[1]
  activity: 17.5 % mutated reads
[2]
  activity: 18.4 % mutated reads
